Protein stability index data for 27 proteins are collected here from the supplement of paper PMC10567573.

A short description of this data set: protein stability index of a GFP-peptide fusion (GPS, HEK-293T) (PSI 1-6); higher = more stable. Conditions: c terminus: a fixed tail appended.
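Further: lentivirally expressed fusions sorted by FACS into six bins by GFP to DsRed ratio, PSI derived from sequencing read proportions per bin multiplied by bin number.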

On to HDDGYMICCDKCSVWQHIDCMGID, for which, for the setting “parent: IOH39874_22”, the protein stability index was determined as 2.33.
Consider FHELQMQVTASDSGDPPLSSNVSL, for which, under “parent: IOH36207_89”, the protein stability index worked out at 2.17.
For HFKKTKKMGGKDFSFRYQQELEEE, the protein stability index (parent: IOH37933_67) came to 2.21.
As for YSCPATNECEITKRRRKSCQACRF [ESRRG WT], the protein stability index (parent: IOH39815_24) is 3.16.
As for LIKFQVGLKKLNLHEEEHVLLMAI, the protein stability index (parent: IOH39811_53) amounted to 2.28.
In the case of QLDKNSEVYQEVQAMFDTLGIPKS [FAM98B WT], the protein stability index (parent: IOH35542_24) came out at 3.16.
As for PRCDLVDLGEGKICFCCEEFQPAK, the protein stability index (parent: IOH35782_7) was 2.92.
Turning to TYLCERCQPRNLDKERAVLLQRRK, the protein stability index (parent: IOH39874_27) is 2.15.
On to FSFRYQQELEEEIKELYENFCKHN, for which the protein stability index (parent: IOH37933_69) was found to be 2.5.
Turning to CALNALTTTVCLVAAALRYLQIFA, the protein stability index (parent: IOH35782_16) came out at 2.77.
As to SLPLQDELAFAEDLVLDEEGARAA, under “parent: IOH39702_47”, the protein stability index amounted to 3.08.
With VAAALRYLQIFATRRSCIDESQIS, the protein stability index (parent: IOH35782_18) is 1.98.
On to YSLELGKAIKQKLWEALCSQGAIS [C22orf31 WT], for which, where the note is “parent: IOH35430_40”, the protein stability index was found to be 2.63.
As to LGVAQRSLPLQDELAFAEDLVLDE, where the note is “parent: IOH39702_46”, the protein stability index was 2.84.
As to VFQHHQYLSPLERKRLAREMQLSE [VENTX WT], the protein stability index (parent: IOH36691_19) was 2.52.
In the case of EKALASILLQDHIRDLDVVVVSVA, under “parent: IOH37933_8”, the protein stability index came to 2.89.
Take YQLGEEALLKFREDEGFVREEEDR [KCNA4 WT]: the protein stability index (parent: IOH29649_44) turned out to be 4.53.
Consider QELEEEIKELYENFCKHNGSKNVF, for which, where the note is “parent: IOH37933_70”, the protein stability index was 2.68.
For the protein VTLELSQLSMLPHLADLVSYSIQK, the protein stability index (parent: IOH39811_37) is 2.42.
Regarding NLAGFILGCQGAQFVSSVPRCDLV, the protein stability index (parent: IOH35782_4) came to 2.97.
Turning to DCMGIDRQHIPDTYLCERCQPRNL, for the setting “parent: IOH39874_25”, the protein stability index came out at 2.99.
As to FGIEIEVTDINDNAPKFQAENLDV, under “parent: IOH36207_21”, the protein stability index amounted to 2.77.
Consider RFSRQCVVDKDKRNQCRYCRLKKC [HNF4A WT], for which the protein stability index (parent: IOH35808_17) worked out at 2.46.
For the protein YGLQGGMAFLDKRLQVKEHQHEEI, under “parent: IOH37933_38”, the protein stability index was 2.62.
Turning to GSEAAVIPLDLGCTQVTQDGDIPN, the protein stability index (parent: IOH35782_37) came to 5.39.
On to YVASHKIEKEEQEKKRKEEEERRR [ACBD3 WT], for which, where the note is “parent: IOH39821_30”, the protein stability index came to 2.71.
As for LKASMRELGLLIFFLFIGVILFSS [KCNA1 WT], the protein stability index (parent: IOH35854_54) worked out at 2.1.
